Values of other authors, collected in PMC5626786.

Biological target: Ark1p peptide (Saccharomyces cerevisiae) (UniProt P53974)
Sequence of UniProt P53974 (P53974 whole entry): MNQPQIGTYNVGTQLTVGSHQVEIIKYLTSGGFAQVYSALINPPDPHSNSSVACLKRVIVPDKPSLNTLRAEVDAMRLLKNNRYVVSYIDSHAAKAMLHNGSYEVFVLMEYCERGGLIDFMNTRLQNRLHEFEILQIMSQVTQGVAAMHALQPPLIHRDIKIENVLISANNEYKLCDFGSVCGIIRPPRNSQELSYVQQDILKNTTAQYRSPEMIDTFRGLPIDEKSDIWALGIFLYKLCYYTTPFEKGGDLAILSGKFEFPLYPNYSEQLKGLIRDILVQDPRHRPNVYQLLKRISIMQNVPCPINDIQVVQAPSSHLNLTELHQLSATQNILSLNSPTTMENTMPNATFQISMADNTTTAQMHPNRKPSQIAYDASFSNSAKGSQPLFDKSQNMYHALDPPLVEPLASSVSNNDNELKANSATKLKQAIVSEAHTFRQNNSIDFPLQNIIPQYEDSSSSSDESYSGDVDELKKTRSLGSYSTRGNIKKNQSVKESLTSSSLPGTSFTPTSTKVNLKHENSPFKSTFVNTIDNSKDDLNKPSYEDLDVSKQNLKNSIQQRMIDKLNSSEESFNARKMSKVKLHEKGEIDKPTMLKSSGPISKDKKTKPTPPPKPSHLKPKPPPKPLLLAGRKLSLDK

Kd: 4.4 µM
Substance: Abp1p SH3 (from UniProt P15891)
